Results from PMC6451337, “The Toxoplasma gondii dense granule protein TgGRA3 interacts with host Golgi and dysregulates anterograde transport” (Biology Open, 2019).

B1: GRA3_HA-Δ43-71 (domain or fragment, Toxoplasma gondii, UniProt B6KEU8 72-161, looked up)
chain: ESYSSATSGVQEATAPGAVLLDAIDAESDKVDNQAEGGERMKKVEEELSLLRRELYDRTDRPGLKRAVILSLATSAAIGGRMVSRTLRDN
notes: also called GST-HA-Δ43-71, after cleavage; source: E. coli BL21, captured on glutathione-Sepharose beads, cleaved with PreScission protease; not shown: GST, N-terminal, cleaved; HA, N-terminal, kept
B2: GRA3_(43-161), cleaved from GST (domain or fragment, Toxoplasma gondii, UniProt B6KEU8 43-161, looked up)
chain: ADQPENHQALAEPVTGVGEAGVSPVNEAGESYSSATSGVQEATAPGAVLLDAIDAESDKVDNQAEGGERMKKVEEELSLLRRELYDRTDRPGLKRAVILSLATSAAIGGRMVSRTLRDN
notes: amplified from parasite cDNA; Cloned at the BamHI site of pGEX6-P3; also called TgGRA3 recombinant protein; source: E. coli BL21, purified on glutathione-Sepharose, cleaved with PreScission protease; not shown: GST, N-terminal, cleaved

Assays:
[1] = target: the molecule itself; test: native gel or EMSA; proteins cleaved from glutathione-Sepharose beads with PreScission protease in 25 mM Tris pH 8, 1 mM DTT, 0.5 mM PMSF, 1 mM EDTA; 10% Tris-glycine native gel, unheated against heated; Coomassie Blue stain and Western blot
[2] = target: the molecule itself; test: SEC; GRA3_(43-161) cleaved from GST with PreScission protease, Superdex 200 Increase 3.2/300 column, AKTA Micro FPLC; protein standards 12,000-200,000 for the standard curve

Protein	binding result [1]	stoichiometry N [2]
B1	binds	
B2		2
